Experimental data taken from patent publication US20210340232A1, “MONOCLONAL ANTIBODIES AGAINST HUMAN DICKKOPF3 AND USES THEREOF” (Board of Regents, The University of Texas System, priority 2018, published 2021).

Columns and labels:
[1] = tested on: BxPC3 cells; assay: BxPC3 Transwell migration in response to rhDKK3; assay type: cell-based, human; conditions: BxPC3, rhDKK3 10 μg/ml, 48 hours
Description: HPSCs and BxPC3 cells were treated with DKK3 mAb clones JM6-6-1 and JM8-12-1 or isotype control mAb or PBS. (FIGS. 5A-B) HPSC apoptosis and migration as measured by FACS and Transwell migration assay at 48 hours. (FIG. 5C) BxPC3 migration in response to rhDKK3 10 μg/ml as measured by Transwell migration assay at 48 hours. (FIG. 5D) BxPC3 resistance to gemcitabine 100 μM as measured by MTS proliferation assay at 6 days. HPSC-CM, pancreatic stellate cell conditioned media, 10 μg/ml. The orthotopic co-injection BxPC3+ HPSC model of PDAC was used to test the efficacy of DKK3 mAb clones JM6-6-1 or JM8-12-1 (5 mg/kg i.p. once every 5 days). (FIG. 5E) Overall tumor progression was measured every 3-4 days by IVIS imaging. (FIG. 5F) Metastatic tumors in the peritoneal cavity after removal of the primary pancreatic tumor are shown by IVIS imaging. (FIG. 5G) Kaplan Meier survival curve showing mice treated with DKK3 mAb clone JM8-12 (right-most line), control mAb (middle line), or PBS (left-most line). (FIG. 5H) KPC mice (P48-Cre; Kras LSL-G12D;Trp53fl/fl) with either wild type DKK3 (solid lines) or deficient in DKK3 (“DKK3-KO,” dashed lines) were treated with DKK3 mAb JM6-6-1 (5 mg/kg i.p. once every 5 days), PBS or control mAb. […]
Cell-based assays. Cell proliferation was measured by the MTS assay (Promega, Madison, Wis.). […]

[2] = tested on: KPC/DKK3-/- model of PDAC; assay: Survival of KPC/DKK3-/- mice (P48-Cre; Kras LSL-G12D;Trp53fl/fl; dkk3-/-); assay type: in vivo, mouse
Description: HPSCs and BxPC3 cells were treated with DKK3 mAb clones JM6-6-1 and JM8-12-1 or isotype control mAb or PBS. (FIGS. 5A-B) HPSC apoptosis and migration as measured by FACS and Transwell migration assay at 48 hours. (FIG. 5C) BxPC3 migration in response to rhDKK3 10 μg/ml as measured by Transwell migration assay at 48 hours. (FIG. 5D) BxPC3 resistance to gemcitabine 100 μM as measured by MTS proliferation assay at 6 days. HPSC-CM, pancreatic stellate cell conditioned media, 10 μg/ml. The orthotopic co-injection BxPC3+ HPSC model of PDAC was used to test the efficacy of DKK3 mAb clones JM6-6-1 or JM8-12-1 (5 mg/kg i.p. once every 5 days). (FIG. 5E) Overall tumor progression was measured every 3-4 days by IVIS imaging. […]
FIGS. 6A-F. DKK3 blockade is associated with increased tumor immune infiltrates and improves response to checkpoint inhibitor therapy. (FIG. 6A) T cells were stimulated, treated with DKK3 (5-10 μg/mL) and proliferation was measured by CFSE assay. In a syngeneic orthotopic model with luciferase-labeled KPC cells, tumors were examined for CD3 and CD8 expression by IHC (FIG. 6B) and additional markers of T cell activity were measured by quantitative PCR (FIG. 6C). Mice in this model were treated with either control IgG, DKK3 mAb JM6-6-1, αCTLA4 or the combination JM6-6-1+αCTLA4 and tumor growth was measured by IVIS imaging to 25 and 190 days (FIG. 6D). […]

[3] = tested on: KPC model of PDAC; assay: Survival of KPC mice (P48-Cre; Kras LSL-G12D;Trp53fl/fl) with wild type DKK3; assay type: in vivo, mouse
Description: HPSCs and BxPC3 cells were treated with DKK3 mAb clones JM6-6-1 and JM8-12-1 or isotype control mAb or PBS. (FIGS. 5A-B) HPSC apoptosis and migration as measured by FACS and Transwell migration assay at 48 hours. (FIG. 5C) BxPC3 migration in response to rhDKK3 10 μg/ml as measured by Transwell migration assay at 48 hours. (FIG. 5D) BxPC3 resistance to gemcitabine 100 μM as measured by MTS proliferation assay at 6 days. HPSC-CM, pancreatic stellate cell conditioned media, 10 μg/ml. The orthotopic co-injection BxPC3+ HPSC model of PDAC was used to test the efficacy of DKK3 mAb clones JM6-6-1 or JM8-12-1 (5 mg/kg i.p. once every 5 days). (FIG. 5E) Overall tumor progression was measured every 3-4 days by IVIS imaging. (FIG. 5F) Metastatic tumors in the peritoneal cavity after removal of the primary pancreatic tumor are shown by IVIS imaging. (FIG. 5G) Kaplan Meier survival curve showing mice treated with DKK3 mAb clone JM8-12 (right-most line), control mAb (middle line), or PBS (left-most line). (FIG. 5H) KPC mice (P48-Cre; Kras LSL-G12D;Trp53fl/fl) with either wild type DKK3 (solid lines) or deficient in DKK3 (“DKK3-KO,” dashed lines) were treated with DKK3 mAb JM6-6-1 (5 mg/kg i.p. once every 5 days), PBS or control mAb. Kaplan Meier survival curve is shown with hazard ratios (Log-rank test). *p<0.05, **p<0.01, ***p<0.001, ****p<0.0001 vs. control Ab.
Two GEMMs of PDAC that differ in the pancreas-specific promoter to target oncogenic Kras expression (Hingorani et al., 2005; Hingorani et al., 2003) were used in the experiments to evaluate the effect of DKK3 neutralizing mAb (Pdx1-Cre; Kras^LSL-G12D; Trp53^R172H/+ and P48-Cre; Kras^LSL-G12D; Trp53^fl/fl). To evaluate the effects of genetic ablation of DKK3 on pancreatic cancer development, DKK3-null mice were crossed to P48-Cre; Kras^LSL-G12D;Trp53^R172H or P48-Cre; Kras^LSL-G12D; Trp53^fl/fl mice (Hingorani et al., 2005; Hingorani et al., 2003), and the progeny were monitored until they were moribund. Tissue and blood samples were collected after the mice were euthanized. […]

[4] = JM6-6-1 5 mg/kg i.p. once every 5 days

B1: JM6-6-1: monoclonal antibody against human DKK3; heavy chain variable SEQ ID NO: 19, light chain variable SEQ ID NO: 20 (antibody, V domains shown)
VH: EVKLVESGGGLVKPGGSLKLSCAASGFTFTIEYMAWIRQTPEKRLEWVASISSGGDDIYYADNVKGRFTISRDNAKNTLYLQMSSLKSEDTAIYYCSRSLSDWGQGTTLTVSSAKTTPPSDYPLA
VL: MTQTPLSLPVSLGDQASISCRSSQSILHSNGHTYLEWYLQKPGQSPKLLIYKVSNRFSGVPDRFSGSGSGTDFTLKISRVEAEDLGVYYCFQGSHVPFTFGSGTKLEIERADAAQ
- effect on DKK3-mediated induction of migration [1]: reverse the DKK3-mediated induction of migration
- effect on survival compared to PBS or control mAb [2]: no effect on survival
- median survival [2]: 58 days
- hazard ratio (HR) compared to PBS or isotype control mAb [3, 4]: 0.24
- increase of median survival compared to PBS or isotype control mAb [3, 4]: 43%
- median survival ([3]; KPC mice with wild type DKK3): 61.5 days
